We go through two substances from paper PMC4629423.

What all share (assay): two-hybrid
Experiment [1] concerns the target SARS-CoV accessory protein 9b (yeast two-hybrid fusions) (SARS-CoV Tor2 isolate).
For experiment [2], the target named is SARS-CoV accessory protein 8a (yeast two-hybrid fusions) (SARS-CoV Tor2 isolate).
Experiment [3] concerns the target SARS-CoV accessory protein ORF14 (yeast two-hybrid fusions) (SARS-CoV Tor2 isolate).

In experiment [1], “SARS-CoV accessory protein 9b (yeast two-hybrid fusions) (natural protein)” came in with a α-Galactosidase of 2.52 and a β-Galactosidase of 8.8. In addition, in experiment [2], the α-Galactosidase was 1.17 and the β-Galactosidase was 6.91.
As to “SARS-CoV accessory protein ORF14 (yeast two-hybrid fusions) (natural protein)”, in experiment [3], the α-Galactosidase worked out at 1.84 and the β-Galactosidase came out at 6.03.
